Assays:
Type in all cases: biochemical
[1] = system: Trastuzumab-(GalNAzβ1,4)GlcNAc; test: HpFT-4HR and HFT6 transferring GDP-FAmP4Biotin to Trastuzumab-(GalNAzβ1,4)GlcNAc; details: donor GDP-FAmP4Biotin 1 mM, enzyme 0.5 mg/mL, 30° C., 6 h; FIG. 5B
Description: Three parallels were set up for each group. After the reaction time point was reached, to the reaction solution was added 10 mM LacNAc, and the reaction was terminated by a desalting column (Zeba™ Spin Desalting Columns/2 ml/40K, Thermo Fisher Scientific), and finally mass spectrometry was carried out and % of conversion was calculated. […] For Trastuzumab-(GalNAzβ1,4)GlcNAc, % of conversion was calculated according to Example 18.

[2] = system: Trastuzumab-(GalNAzβ1,4)GlcNAc; test: HpFT-2HR and HpFT-4HR transferring GDP-FAmP4Biotin or GDP-FAzP4Biotin to Trastuzumab-(GalNAzβ1,4)GlcNAc; details: donor 1 mM, enzyme 0.5 mg/mL, 6 h; FIG. 6(B)
Description: To 40 mM Tris-HCl (pH 7.5) buffer were added Trastuzumab-(Fucα1,6)(Galβ1,4)GlcNAc (2 mg/mL final), GDP-FAmP4Biotin (1 mM final), MgCl2 (20 mM final), and different HpFT enzymes (HpFT-4HR, HpFT-4HR(M4), HpFT-4HR(M7), HpFT-6HR, HpFT-3HR, HpFT-2HR, HpFT-1HR or HpFT-0HR) (0.5 mg/mL final) in sequence, and the resulting mixed solution was allowed to react at 30° C. for 1 h. Three parallels were set up for each group. After the reaction time point was reached, to the reaction solution was added 10 mM LacNA, and the reaction was terminated by a desalting column (Zeba™ Spin Desalting Columns/2 ml/40K, Thermo Fisher Scientific), and finally mass spectrometry was carried out and % of conversion was calculated. % of conversion=(MAR0 peak intensity*0+MAR1peak intensity*1+MAR2 peak intensity*2)/2* (MAR0 peak intensity+MAR1 peak intensity+MAR2 peak intensity)*100%.
(§1) To 40 mM Tris-HCl (pH 7.5) buffer were added Trastuzumab-(GalNAzβ1,4)GlcNAc (2 mg/mL final), GDP-FAmP4Biotin or GDP-FAzP4Biotin (1 mM final), MgCl2 (20 mM final), and HpFT-2HR or HpFT-4HR (0.5 mg/mL final) in sequence, and the resulting mixed solution was allowed to react at 30 t for 6 h. Three parallels were set up for each group. After the reaction time point was reached, to the reaction solution was added 10 mM LacNAc, and the reaction was terminated by a desalting column (Zeba™ Spin Desalting Columns/2 ml/40K, Thermo Fisher Scientific), and finally mass spectrometry was carried out and % of conversion was calculated. % of conversion was calculated according to Example 18.

Trastuzumab-G2F [3] = test: HpFT-4HR and HFT6 transferring GDP-FAmP4Biotin to Trastuzumab-G2F; details: donor GDP-FAmP4Biotin 1 mM, enzyme 0.5 mg/mL, 30° C., 6 h; FIG. 5A
Trastuzumab-G2F [4] = test: HpFT-2HR and HpFT-4HR transferring GDP-FAmP4Biotin or GDP-FAzP4Biotin to Trastuzumab-G2F; details: donor 1 mM, enzyme 0.5 mg/mL, 30° C., 6 h; FIG. 6(A)
Description: To 40 mM Tris-HCl (pH 7.5) buffer were added Trastuzumab-G2F (2 mg/mL final), GDP-FAmP4Biotin (1 mM final), MgCl2 (20 mM final), and different HpFT enzymes (HpFT-4HR, HpFT-4HR(M4), HpFT-4HR(M7), HpFT-6HR, HpFT-3HR, HpFT-2HR, HpFT-1HR, or HpFT-0HR) (0.5 mg/mL final) in sequence, and the resulting mixed solution was allowed to react at 30° C. for 3 h. Three parallels were set up for each group. After the reaction time point was reached, to the reaction solution was added 10 mM LacNAc (N-acetyl-D-lactosamine), and the reaction was terminated by a desalting column (Zeba™ Spin Desalting Columns/2 ml/40K, Thermo Fisher Scientific), and finally mass spectrometry was carried out and % of conversion was calculated. % of conversion=(MAR0 peak intensity*0+MAR1peak intensity*1+MAR2 peak intensity*2+MAR3 peak intensity*3+MAR4 peak intensity*4)/4* (MAR0 peak intensity+MAR1 peak intensity+MAR2 peak intensity+MAR3 peak intensity+MAR4 peak intensity)*100%.
as §1, with “Trastuzumab-G2F” for “Trastuzumab-(GalNAzβ1,4)GlcNAc”, “30° C.” for “30 t”, “17.” for “18.”

B1: HpFT-4HR: reported α-1,3 fucosyltransferase (Wu P. et al.): catalytically active domain, four heptapeptide repeat sequences, C-terminus His tag (protein)
chain: MFQPLLDAFIESASIEKMVSKSPPPPLKIAVANWWGDEEIKEFKKSVLYFILSQRYAITLHQNPNESSDLVFSNPLGAARKILSYQNTKRVFYTGENESPNFNLFDYAIGFDELDFNDRYLRMPLYYAHLHYEAELVNDTTAPYKLKDNSLYALKKPSHHFKENHPNLCAVVNDESDLLKRGFASFVASNANAPMRNAFYDALNSIEPVTGGGSVRNTLGYKVGNKSEFLSQYKFNLCFENSQGYGYVTEKILDAYFSHTIPIYWGSPSVAKDFNPKSFVNVHDFNNFDEAIDYIKYLHTHPNAYLDMLYENPLNTLDGKAYFYQDLSFKKILDFFKTILENDTIYHNNPFIFYRDLHEPLISIDDLRVNYDDLRVNYDDLRVNYDDLRVNYLEHHHHHH
modifications: Catalytically active domain of Helicobacter pylori Alpha-(1,3)-fucosyltransferase (GenBank No.AAD07710.1) with 4 heptapeptide repeats and a C-terminal His tag
- catalytic activity (% of conversion), HpFT-4HR versus HFT6 [1]: much higher than that of human-derived fucosyltransferase HFT6
- activity in catalyzing the transfer of GDP-FAmP4Biotin relative to transfer of GDP-FAzP4Biotin [2]: significantly higher
- catalytic activity (% of conversion), HpFT-4HR versus HFT6 (Trastuzumab-G2F [3]): much higher than that of human-derived fucosyltransferase HFT6
- activity in catalyzing the transfer of GDP-FAmP4Biotin relative to transfer of GDP-FAzP4Biotin (Trastuzumab-G2F [4]): significantly higher

— patent US20240335558A1, “ISOLATED POLYPEPTIDE AND USE THEREOF” (GLYCO-THERAPY BIOTECHNOLOGY CO., LTD., priority 2021, published 2024)
